Data on three molecules can be found in PMC3947097 (Nature, 2013).

One assay addresses ACP (Escherichia coli) (UniProt P0A6A8). To be noted: cited from earlier work.
Assay [1] concerns the target T1, His6-LpxD (wild-type E. coli LpxD acyltransferase) (E. coli, UniProt P21645 3-341).
T1 sequence: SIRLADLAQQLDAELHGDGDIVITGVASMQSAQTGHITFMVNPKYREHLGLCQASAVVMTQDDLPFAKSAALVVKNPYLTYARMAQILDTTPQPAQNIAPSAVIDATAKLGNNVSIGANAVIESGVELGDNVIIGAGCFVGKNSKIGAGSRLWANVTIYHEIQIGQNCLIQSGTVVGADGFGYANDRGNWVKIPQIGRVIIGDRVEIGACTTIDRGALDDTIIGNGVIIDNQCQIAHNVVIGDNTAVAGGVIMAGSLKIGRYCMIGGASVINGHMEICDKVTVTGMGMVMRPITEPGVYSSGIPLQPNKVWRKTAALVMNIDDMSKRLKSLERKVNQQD
In words: crystal structure.

Assay [2] deals with T2, His239Ala His6-LpxD (catalytically inactive) (E. coli, UniProt P21645 3-341, His239Ala).
T2 sequence: T1 sequence with H237A
The assay is described as follows: crystal structure.

As usually defined, the Kd is a measure of binding affinity in units of concentration. As usually defined, the stoichiometry N is a count of units in the complex or per binding partner.

Where a chain is given by its changes, count along the chain named.

For the molecule LpxD (from UniProt P21645), the dissociation constant Kd in the assay with ACP (Escherichia coli) was 0.059 µM.

B1: holo-ACP (E. coli acyl-carrier-protein with 4'-phosphopantetheine) (natural protein)
chain: SHMSTIEERVKKIIGEQLGVKQEEVTNNASFVEDLGADSLDTVELVMALEEEFDTEIPDEEAEKITTVQAAIDYINGHQA
modifications: 4'-phosphopantetheine (4'-PPT) attached to Ser36, free terminal thiol
Consider B1, for which the binding result in assay [1] is “binds”.

B2: R-3-hydroxymyristoyl-ACP (intact-acyl-ACP) (natural protein, E. coli)
chain: B1 chain
modifications: 4'-phosphopantetheine attached to Ser36, carrying R-3-hydroxymyristoyl (β-OH-C14) in thioester linkage
Consider B2, for which the “stoichiometry N” value in assay [2] stood at 3 ACP per LpxD trimer.
